Data published in the DeepSol protein solubility set.

Assay: soluble on expression in E. coli; label from the status in PepcDB or PDB records

Sequence	soluble on expression in E. coli
MYDAIVVGGGFSGLKAARDLTNAGKKVLLLEGGERLGGRAYSRESRNVPGLRVEIGGAYLHRKHHPRLAAELDRYGIPTAAASEFTSFRHRLGPTAVDQAFPIPGSEAVAVEAATYTLLRDAHRIDLEKGLENQDLEDLDIPLNEYVDKLDLPPVSRQFLLAWAWNMLGQPADQASALWMLQLVAAHHYSILGVVLSLDEVFSNGSADLVDAMSQEIPEIRLQTVVTGIDQSGDVVNVTVKDGHAFQAHSVIVATPMNTWRRIVFTPALPERRRSVIEEGHGGQGLKILIHVRGAEAGIECVGDGIFPTLYDYCEVSESERLLVAFTDSGSFDPTDIGAVKDAVLYYLPEVEVLGIDYHDWIADPLFEGPWVAPRVGQFSRVHKELGEPAGRIHFVGSDVSLEFPGYIEGALETAECAVNAILHSHHHHHH	soluble
MYDAYTPCEVALRLPVEVTCLAFQESNQTLLAGGRAGHLYAYTISANRRGFELTNICKSFHKKAVMELKVCQREDLLLCVSDGQLMAHKLSDPEYKVETLIHKVKPVQTFARFSPKTSGDLYVIVSSRKKLYLFKWGEKDGHKEFIEVALDYNPVFLDTPTSIRCVGEMVFFSVRNEYFSMTMQKDKTTTSPSEGSTPEGWNGFVTRLLNFNCQPGIVPMIDRRRVAFVRNEIVVTTDIWGQRPANVLSDEYKFSEVPMQIVYDSPYLVGMLSKGRVEVRSIFDGQLVQTMSLPKAMTLCSGARGQVFVAALSDIWILDTSQNLRKNVSHLIQERHFELAIQLAENSNLFAEEQKLEIKKKAALNLFNQKKFDESFALFGEIKTDISEVLSIIRMFPELLPDGFQSMTGVVSDMPANDRMRALLALGSYLSEIRTEHAKHIELYNRLYSSGAAKKTDEDEKAKLLLTLRVVDTTLLKCYIKTKPMLVDSLIRLQSNACTFEDAKKILESEGRLRSLFILYETRKKHEMALDLFIDQSSRPDADPFFDDAIQQIVEYLQSLGNSNLPLILKYAKWVLAKNLEAGVQIFTSDETEMARNLNRKAVVEFLKSECPDALIPYLEHVIFKWEEPSSYFHETLLEFYVARVNTLFKDYVHAFPDDENITRAGDEDGELGLYRKRLLKFLEVSHSYSPQTVLLQLAPHAFYEERALILGRLKQHEQALAIYVNTLKNVPAAEEYCRLYYNAHDETNSQVYLMLFRTLVHPNQQQLHSIPYHADSTPFGSYRDDVSEASTLVNSTSSYQPDVNTAIKILAKHADKIDTVGALNMLPATTPLRVVFSAINAVIQTTGRQASTRKMEKSVSQCAMSKKLERKNKAQSTKIIVNFSSECVVCEKKIAVSAFVRYPDGRLAHLYCHNDSQGGNRN	not soluble
MYDVAIIGAGVIGCSIFRELTKYDLRVVVLEKEKDVSMGTSKANSAIVHAGYDPEEGTLMAKYNVKGNEMFEELCKELSVPFKRNGSLVLAFDKEDMFKVKHLYENGSKLGVKGLKILNRDEVLKMEPNLNDKIEGALYAPTGGIVGPFEYTIALAENGVTNGGKIKLKKEVVSIKKRDVFKIGTEDGETIEAKFVINAAGVYADKIHNLVCKESFKISPRSGEYFVMDKSQGNVVKHTIFQCPSKLGKGVLITPTVHGNLLVGPDARDVEDKEDVGTVFEGLDYVKEASMRSTKEVNFRESIRNFAGLRANPDTGDFIVEENDEVKGFIDVAGMKSPGLSSAPAIAVDVVNILSSAGCSLKK	not soluble
MYEYLLLTRKNALFSLAINEPSPTFALTIIAIFSSTNVRSSVVRLGCFRVEICCTCHTQYLKLEIMVIISYLKYVNLPCSFIFISNSFALVFKISAEV	soluble
MYGTEQIISGTIIAGPEILPIEGYICVKNGIITEIGEERTNSKNIIAPCFVNAHTHLGDSVCKDPVLGKTSGFRVQRDLDSLVKPPDGLKHRILRETPYKTLVGHIKRSLLDMIDTGTCAFADFREGGFLGVAALNKALEGLELRSLIFGRPAEPDLPLQVVLSEVRRILLRSDGLGMSGANDLDMNLLQEITACTRERKKLFAIHAGEKNRSDIEKALSLEPDLLIHLTHAGKKDLDEIAQAKIPVVVCPRSNFVTGAGMAPIAEMLEAGIRVAAGTDNVMLNSVNMFAEMEFMSKIFSIDDRQVFKICTLNGSFVMGPDSMCSIEKGNKANLMILNGDSNNLAGIQDPVGGITKRARPDDILAVLHS	not soluble
MYKNILLGVDTQLKNEKALKEVSKLAGEGTVVTVLNAISEQDAQASIKAGVHLNKLTEERSKRLEKTRKALEDYGIDYDQIIVRGNAKEELLKHANSGKYEIVVLSNRKAEDKKKFVLGSVSHKVAKRATIPVLIVK	not soluble
MYLPIFCIFLSVVDSLRILQIVPGFTNSHVLFNYRLAETLRFLGHDVKMWTQMEMAMLDTGNNKLPEGVSEYRIPIHFTDTLKTEGLKVFQSMMFESGDAHDLWWTGQEFKDMRVEACEQMLRHDESVYEDFRKDGFDVAIAHFHDLCPLAIAKKMNVKRVIWITHGTSIYEFSAVQLGLRTIPSTIPHPLSSAGFSQLFLDRVQNTLWHLSLLDFVNLPQNLLVDENLFYREFVGADQDDLWDLAKTTVPSLLINGDRMLDFPRPLPIHIAFSGELGVSKGKKLVMEKWLEDIIEKPSDGLIVFSLGTVSNTTNMPAQMINSFLGAFGKLKTYTILWRMEKSVAGAEKYENLHLVKWLPQKDIMRHPKMKLMIAHGGYNSFLEAAQAGIPAVLMPLFADQKINAKRAQRYGMATVLDKLDLTINNVYGAIKEALKPEYSTNAKKLSAMLSDQVARKPYSALRYSLKLATSPKPSLFTLKSQHLSFLEFHNLDIFSIVLLTAFIVCF	not soluble
MYLSRITLHTSELSPAQLLHLVERGEYVMHQWLWDLFPGSKERQFLYRREELQGAFRFFVLSQEQPAASAIFDVQTRPFAPTLSAGQTLRFNLRANPTVCKNGKRHDLLMEAKRQRKTQGDSQDIWSYQQQAALTWLARQGEQNGFTLREASVDAYRQQQIRRGKDRQMIQFSSVDYTGVLVINEPALFLQRLAQGFGKSRAFGCGMMMIKPGDDA	not soluble
MYNETPIKRRPSTRIYVGNVPIGDGAPIAVQSMTNTKTTDVEATVAQIRALEKVGADIVRVSVPTMDAAEAFKLIKQSVSVPLVADIHFDYRIALKVAEYGVDCLRINPGNIGNEERIRSVVECARDKNIPIRIGVNGGSLEKDLMDKYKEPTPEALLESAMRHVDILDRLNFDQFKVSVKASDVFLAVESYRLLAKQIRQPLHLGITEAGGARAGAVKSAVGLGMLLAEGIGDTLRISLAADPVEEIKVGFDILKSLRIRSRGINFIACPSCSRQEFDVISTVNELERRLEDVTTAMDVSIIGCVVNGPGEALVSHIGLTGGHRKSGYYDEGERQKERFDNDNLVDSLEAKIRAKASQMANRIQVKDTTEAAALEHHHHHH	not soluble
MYPDGLTENEKLKVKELCTMVNISDEDAIKLLKENDWDIAISSRRVSKQEDKTLVPGTSREEIDLDRLSSRLRVHGLAFYLPDFGGFPNEFRTFLEKDLIETQTQKRLEASRHLNWWHQFGQKLYPLSTTGDGNCLLHAASLGMWGVHDRQLSLRETLYELLTNGARKEAIRRRWKWVENHMNQSNGLALTLSENEWELEWDVVLGLSSPLPRKQEDNGSNSTDQIYESLEAIHVFALAHVLKRPVVVVSDTILRNAKGEELSPVAFGGIYLPLECPPSQCHRSPLVLCYDSAHFSPLVLMRTETNNKQIIPIIDVNRNLLPVHFAVDPGESFDWSKLETNSNTQTTTDMSQIDKLALISQYMDIIRLDVRRGSIRSSRRVRSAHAQLLTESRGENGQNLPQKSIKPRDLSAHSSDEQPSNNAKGMTLASSGIGSGRHEKWRLINEIRTHVLRTFRISSSTRGKEKLIDTDDCIARMNSTCVLASELLPTHHQYMDKIINEYMKSAKQRFQQNQRTQSDSRKRISRSFSASSLMLTCIGCDSEFKPASQVTNIMCDQCFAWQKMSVLTSNCDQFMGNSGPPCKSSTLPSFGSNDSNQNDKENIVEVLNVVPKDGAKTLTSMRAVEDENGVVHYYMDDEVADS	not soluble
MYPIKIIYVYKAMLDKVIDKAGGVLTEAYGDVVKPVLKPIGEVLGFLPRSIKCLLQGWEKWIINGEESIRLTSEAIRKKIEATPAERLTEPEPYVVVPAIQQLGYSHSSEELRELYANLIVSSMDVEKKGLVHPAFVDILKKLTPDEAKIIQYFKGRDFIEYLDLRAYIKEEEGGGFRTIADHKTLLSDEVNFFMPDNELAYLQNLVCLGILKDCEGTFTVIEDNYKLIENKLGLESLRNQYVPEQFSSIRSEKSFYQVTDFGRNFINTVTE	not soluble
MYPLTLLRISRNRIVELELKNNDQLRGLLHKCDMAMNLHLKSVTIQKEDGSSIFINECYLKGTSIRLVKLESKILLEQREECVSNNKA	not soluble
MYPSDFASALESLSLKEMRQAIHRLLDIRDENTWMLFGTLPFYACSPDEDDQKLLRRLRAAKNVTVRNDPDGRSRLNVNIFDGNIIVTDFGDTPPLGNIQTDSLPSAYEKWRETKLAKELSCHCPNVRCLGPNVLVKNSYYQDTDFTKRQARS	not soluble
MYRQALASGEKIFAVAPMIDWTDTRCRFLHRQLSKRALLFTEMIVADAIIHGQREKLLGYHPQEHPVALQLGGSNPAKLAEAVRIAGDYGYDEINLNVGCPSDRVQSGTFGACLMREPEVVAQCISAMKAVAAVPVTVKCRIGVDDQEPETVLPDFLARVVAAGADAVWVHARKAWLQGLSPKENREVPPLDYDLVYRMKRDNPDVFIGINGGIADLDQAGEHLKYVDGVMLGRAAYHNTSILADVDHRIHGEEALQYDWMALRDTMMAYAADYIATGGRLNHVTRHMVGLFQGMPGARRFRQILSSDATRPGAGPEVIEAAFAAIDFNPMKELAG	not soluble
MYRSHFIADVTPEYDGKEVIWAGWVHLLRDLGGKKFIILRDKTGLGQVVVDKNSSAFGISQELTQESVIQVRGIVKADKRAPRGIELHAEEITLLSKAKAPLPLDVSGKVKADIDTRLRERVLDLRRQEMQAVIKIQSLALKAFRETLYKEGFIEIFTPKIIASATEGGAQLFPVIYFGKEAFLAQSPQLYKELMAGVVERVFEVAPAWRAEESDTPFHLAEFISMDVEMAFADYNDVMQLLEKILHNIVKTIKEEGKEELKILNYEPPEVKIPIKRLKYTEAIEILRSKGYNIKFGDDIGTPELRILNEELKEDLYFIVDWPSDARPFYTKSKSENPELSESFDLIYKFLEIVSGSTRNHKREVLEEALKKKGLKPESFEFFLKWFDYGMPPHAGFGMGLARLMVMLTGIQSVKEIVPFPRDKKRLTP	soluble
MYSFTTERLMIRPLRAEDEVFYCQLYADSKVMENIGKTITKKQARQWFKRALKALSSPKKSVVTLAIVKKSTNNIIGIQALSWQNTTQILKPCSQKLVQAEIGIMLTTKAQGQGFGKEAIKALMAYGFVYHSLDRINAFYAKKNLASERLFNSLH	not soluble
NCHIFKTKAKESQGASPTLGQSEAYHRQNKPYEQQPYGFGVGKKMTSSSKSKVPIFKSFNLKSYQRNHYYSSKKERKHGSPDIDSLFHETNGASKVRMTDAGKMDTNSQFQEIWEILGKNAYTHKSYSEDPNSCLGSALSDHEEEEEAGKQQQQQQQQQQQQQHYGMTSKSSSPDEEKKNNKEPKRESRVSPEENGEEETGHKQFKLPKTSTFSSGSHDSNLQSPFYNHEYRHYARSKFECKNQFRKSVSPIKEIPATTSANEGWNILRDIIEKLNISNVDDRNKDLLFRRDEIGDKNHSDSIDIENLSIKEPKGMKRRKKDDISLEELFQSLPREKDYFMMDAINDSLESINLFKKPKTTQSHEQGGTFAQAESNRAKFKPLLEQCGITPEI	not soluble
NDNRPVFKEGQVEVHIPENAPVGTSVIQLHATDADIGSNAEIRYIFGAQVAPATKRLFALNNTTGLITVQRSLDREETAIHKVTVLASDGSSTPARATVTINVTDVN	soluble
NDRFQWTSTLNGTYLKNRVERLSGGENDFINGSSPAAGMVDYATIIKPGEAIGTFWGYEWTGLDEKGHDTYTDVDGNQMIDGGDRKVIGKANPDFTLGWNNSLSYKNWDLNLFFNGSFGAKRLNLVRYTMASAEGNSRFVTLADAYLKGFDKIGSSATYPSLTEGGNNLQPVSTKWLENADFLRLENISLSYTFPKKTTGFADLRLTFSCQNLFTITGYKGMDPAGTTFSNSSVDVDAGIDMGAYPSPRTFTFGLRMNF	not soluble
